# Tests used:
# Assay in all cases: crystal structure
# [1] = target: Len c 1, lentil vicilin (7S globulin) core region (Lens culinaris Medicus (lentil))
# [2] = target: Pis s 1, pea vicilin (7S globulin) core region (Pisum sativum L. (pea))
# crystal structure = target: the molecule itself
molecule,measurement,setting,value
"Len c 1, lentil vicilin (7S globulin) core region (domain or fragment)",stoichiometry N,[1],3
"Pis s 1, pea vicilin (7S globulin) core region (domain or fragment)",stoichiometry N,[2],3
"Pis s 2, pea convicilin (7S globulin) core region (domain or fragment, Pisum sativum L. (pea)) SQERRNPFLFKSNKFLTLFENENGHIRLLQRFDKRSDLFENLQNYRLVEYRAKPHTIFLPQHIDADLILVVLSGKAILTVLSPNDRNSYNLERGDTIKLPAGTTSYLVNQDDEEDLRLVDLVIPVNGPGKFEAFDLAKNKNQYLRGFSKNILEASYNTRYETIEKVLLEEQEKDRKRRQQGEETDAIVKVSREQIEELKKLAKSSSKKSLPSEFEPINLRSHKPEYSNKFGKLFEITPEKKYPQLQDLDLFVSCVEINEGALMLPHYNSRAIVVLLVNEGKGNLELLGLKNEQQEREDRKERNNEVQRYEARLSPGDVVIIPAGHPVAITASSNLNLLGFGINAENNERNFLSGSDDNVISQIENPVKELTFPGSVQEINRLIKNQKQSHFANA",stoichiometry N,crystal structure,3
